2 variants from publication PMC4529235 can be followed below.

B1: ASIC1a-ΔCCt (H8-hASIC1a-C466A/C471A/C497A/C528Stop) [human] / itself (parent)
chain: MELKAEEEEVGGVQPVSIQAFASSSTLHGLAHIFSYERLSLKRALWALCFLGSLAVLLCVCTERVQYYFHYHHVTKLDEVAASQLTFPAVTLCNLNEFRFSQVSKNDLYHAGELLALLNNRYEIPDTQMADEKQLEILQDKANFRSFKPKPFNMREFYDRAGHDIRDMLLSCHFRGEVCSAEDFKVVFTRYGKCYTFNSGRDGRPRLKTMKGGTGNGLEIMLDIQQDEYLPVWGETDETSFEAGIKVQIHSQDEPPFIDQLGFGVAPGFQTFVACQEQRLIYLPPPWGTCKAVTMDSDLDFFDSYSITACRIDCETRYLVENCNCRMVHMPGDAPYCTPEQYKECADPALDFLVEKDQEYCVCEMPCNLTRYGKELSMVKIPSKASAKYLAKKFNKSEQYIGENILVLDIFFEVLNYETIEQKKAYEIAGLLGDIGGQMGLFIGASILTVLELFDYAYEVIKHKLARRGKAQKEAKRSSADKGVALSLDDVKRHNPAESLRGHPAGMTYAANILPHHPARGTFEDFT

This assay covers variants of B1. Put plainly: BMOE crosslinking at the cell surface, SDS-PAGE under reducing conditions, anti-His-tag western blotting, band densitometry. The settings on record: with itself; mean ±SEM, n = 4; read off a plot. In general terms: A western blot detects proteins with antibodies after separation by electrophoresis.
For the variant MELKAEEEEVGGVQPVSIQAFASSSTLHGLAHIFSYERLSLKRALWALCFLGSLAVLLVVSTERVQYYFHYHHVTKLDEVAASQLTFPAVTLCNLNEFRFSQVSKNDLYHAGELLALLNNRYEIPDTQMADEKQLEILQDKANFRSFKPKPFNMREFYDRAGHDIRDMLLSCHFRGEVCSAEDFKVVFTRYGKCYTFNSGRDGRPRLKTMKGGTGNGLEIMLDIQQDEYLPVWGETDETSFEAGIKVQIHSQDEPPFIDQLGFGVAPGFQTFVACQEQRLIYLPPPWGTCKAVTMDSDLDFFDSYSITACRIDCETRYLVENCNCRMVHMPGDAPYCTPEQYKECADPALDFLVEKDQEYCVCEMPCNLTRYGKELSMVKIPSKASAKYLAKKFNKSEQYIGENILVLDIFFEVLNYETIEQKKAYEIAGLLCDIGGQMGLFIGASILTVLELFDYAYEVIKHKLARRGKAQKEAKRSSADKGVALSLDDVKRHNPAESLRGHPAGMTYAANILPHHPARGTFEDFT [chain 1 G433C C59V C61S], the relative band intensity (densitometry) came out at 0.18. To MELKAEEEEVGGVQPVSIQAFASSSTLHGLAHIFSYERLSLKRALWALCFLGSLAVLLVVCTERVQYYFHYHHVTKLDEVAASQLTFPAVTLCNLNEFRFSQVSKNDLYHAGELLALLNNRYEIPDTQMADEKQLEILQDKANFRSFKPKPFNMREFYDRAGHDIRDMLLSCHFRGEVCSAEDFKVVFTRYGKCYTFNSGRDGRPRLKTMKGGTGNGLEIMLDIQQDEYLPVWGETDETSFEAGIKVQIHSQDEPPFIDQLGFGVAPGFQTFVACQEQRLIYLPPPWGTCKAVTMDSDLDFFDSYSITACRIDCETRYLVENCNCRMVHMPGDAPYCTPEQYKECADPALDFLVEKDQEYCVCEMPCNLTRYGKELSMVKIPSKASAKYLAKKFNKSEQYIGENILVLDIFFEVLNYETIEQKKAYEIAGLLCDIGGQMGLFIGASILTVLELFDYAYEVIKHKLARRGKAQKEAKRSSADKGVALSLDDVKRHNPAESLRGHPAGMTYAANILPHHPARGTFEDFT [chain 1 G433C C59V] belongs 0.22.
